Earlier results, collected in paper PMC5028754.

Molecular target: ubiquitin (UniProt P0CG48)
Assay: NMR
Details: cited from earlier work

Ddi1 UBA, sequence (P40087 386-428): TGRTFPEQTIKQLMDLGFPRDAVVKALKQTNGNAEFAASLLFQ
Ddi1 UBL, sequence (P40087 1-80): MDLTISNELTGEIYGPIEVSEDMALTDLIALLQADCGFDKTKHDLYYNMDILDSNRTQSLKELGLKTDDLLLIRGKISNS

Row | Substance | Kd
1 | Ddi1 UBL (from UniProt P40087) | 45 µM
2 | Ddi1 UBA (from UniProt P40087) | 150 µM
